Experiments:
Assay in all cases: EMSA
[1] = target: Oct-2 truncated at StuI (cDNA 655-1443) (Homo sapiens, UniProt P09086 SEQ:199-461)
Protocol: (§1) The polypeptides translated in vitro from these RNAs were tested for specific DNA binding by addition of the total translation mix to the DNA-protein gel assay.

[2] = target: T1, Oct-2 truncated at PstI (cDNA 655-1134) (Homo sapiens, UniProt P09086 SEQ:199-358)
T1 sequence: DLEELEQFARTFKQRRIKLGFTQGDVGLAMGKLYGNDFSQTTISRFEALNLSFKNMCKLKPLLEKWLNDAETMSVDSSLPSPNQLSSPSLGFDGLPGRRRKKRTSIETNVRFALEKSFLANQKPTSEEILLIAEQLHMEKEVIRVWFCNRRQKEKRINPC
Protocol: as §1

[3] = target: Oct-2 (pBS-ATG-oct-2, cDNA 655-1710) (Homo sapiens, UniProt P09086 SEQ:199-466)
Protocol: as §1

Measured: binding result

B1: OCTA octanucleotide probe (dsDNA)
DNA 1: ATGCAAAT
DNA 2: ATTTGCAT
binds: [1] | [2] | [3]

Reference: patent publication US20040214757
